How the values were obtained:
Format in all cases: in vivo, human
G-CSF = assay: Biomarker analysis: serum G-CSF; conditions: adjusted for cytokine baseline differences
Method: (§1) Patient serum samples for biomarker analysis were collected approximately 30 minutes before infusion of kappamab and then at 6, 48, 192, and 1,080 hours after infusion for all patients. Samples were analysed in triplicate and serum levels of 48 human cytokines, chemokines, and growth factors were measured using the Bio-Plex Pro™ Human Cytokine 27-plex and 21-plex assays according to the manufacturer's recommendations (Bio-Rad, Carlsbad, Calif., USA; Cat No M10-0KCAF0Y, mg0-005KMII). Results were verified by repeating the 21-plex assay in triplicate and the samples were randomized across the assay plate. Pre-infusion samples were used as the baseline (t=0) for the analysis.
(§2) Multivariate analysis of the biomarker data was performed using R version 3.1.0 (2014-04-10) software (http://www.R-project.org/). Linear mixed effects modelling was completed using 1me4 (Bates et al. 2015). […]
(§3) To find significance between kappamab dose, time, and cytokine expression levels, we fitted a linear mixed-effects model that modelled cytokine fluorescence expression levels with fixed-effects terms for baseline cytokine fluorescence expression, kappamab dose (with 4 levels: 0.3, 1.0, 3.0, and 10 mg/kg), time (treated as factor with 5 levels), and cytokine with 48 levels, plus their interactions, with a random effect associated with patient (12 levels) and plex (2 levels). […]

[1] = Pharmacokinetics: serum kappamab by ELISA
Excerpt: The PK analysis was based on measurement of serum kappamab using an ELISA that was validated according to recommended guidelines. Briefly, immobilized human kappa Bence Jones protein (Bethyl, Sigma, USA) was used to capture kappamab. The captured kappamab was then detected using an AP-conjugated anti-human IgG (gamma chain specific; Sigma, Cat. No. H4522) followed by colour development with the AP substrate.

CXCL9 = assay: Biomarker analysis: serum CXCL9; conditions: adjusted for cytokine baseline differences
Method: as §1, §2, §3

serum λFLC = assay: Serum λFLC (FreeLite assay); conditions: throughout the study
Excerpt: Serum FLC levels were quantified using the FreeLite™ assay (The Binding Site Group Ltd, Birmingham, UK). […] Twenty-four-hour urine collection for urine protein electrophoresis immunofixation, urine FLC measurement (FreeLite™ assay), and creatinine clearance were collected on the day of infusion and on Day 45.

**Q.** What does the source list for “kappamab: humanized form of K121 anti-KMA antibody; VH SEQ ID NO: 1, VL SEQ ID NO: 2”?
**A.** Change in serum concentration (G-CSF): dose-related decreases; Cmax ([1]; 1.0 mg/kg single IV dose, N = 3, geometric mean): 20600 ng/mL; Manner of decline of serum kappamab after Cmax ([1]; human, in vivo): biphasic manner; Serum concentration at Day 30 relative to Cmax ([1]; human, in vivo): 0.3-10 % of Cmax; Volume of distribution (Vz), description ([1]; human, in vivo): low and similar across ascending doses; AUC0-tz ([1]; human, in vivo, iv, 0.3 mg/kg): 803 µg·h/mL; AUC0-tz normalized for dose (mg/kg) ([1]; human, in vivo, iv, 0.3 mg/kg): 2678 µg·h/mL; AUC0-∞ ([1]; human, in vivo, iv, 0.3 mg/kg): 901 µg·h/mL; AUC0-∞ normalized for dose (mg/kg) ([1]; human, in vivo, iv, 0.3 mg/kg): 3003 µg·h/mL; CL (apparent total body clearance) ([1]; human, in vivo, iv, 0.3 mg/kg): 7.99 mL/day/kg; Cmax ([1]; human, in vivo, iv, 0.3 mg/kg): 5440 ng/mL; Vz (apparent volume of distribution during terminal phase) ([1]; human, in vivo, iv, 0.3 mg/kg): 0.114 L/kg; t1/2 (apparent elimination half-life) ([1]; human, in vivo, iv, 0.3 mg/kg): 237 h; tmax ([1]; human, in vivo, iv, 0.3 mg/kg): 3.00 h; AUC0-tz ([1]; human, in vivo, iv, 1 mg/kg): 3006 µg·h/mL; AUC0-tz normalized for dose (mg/kg) ([1]; human, in vivo, iv, 1 mg/kg): 3006 µg·h/mL; AUC0-∞ normalized for dose (mg/kg) ([1]; human, in vivo, iv, 1 mg/kg): 3079 µg·h/mL; CL (apparent total body clearance) ([1]; human, in vivo, iv, 1 mg/kg): 7.79 mL/day/kg; Vz (apparent volume of distribution during terminal phase) ([1]; human, in vivo, iv, 1 mg/kg): 0.0946 L/kg; t1/2 (apparent elimination half-life) ([1]; human, in vivo, iv, 1 mg/kg): 202 h; tmax ([1]; human, in vivo, iv, 1 mg/kg): 4.00 h; AUC0-tz ([1]; human, in vivo, iv, 3 mg/kg): 6864 µg·h/mL; AUC0-tz normalized for dose (mg/kg) ([1]; human, in vivo, iv, 3 mg/kg): 2288 µg·h/mL; AUC0-∞ ([1]; human, in vivo, iv, 3 mg/kg): 6927 µg·h/mL; AUC0-∞ normalized for dose (mg/kg) ([1]; human, in vivo, iv, 3 mg/kg): 2309 µg·h/mL; CL (apparent total body clearance) ([1]; human, in vivo, iv, 3 mg/kg): 10.4 mL/day/kg; Cmax ([1]; human, in vivo, iv, 3 mg/kg): 69900 ng/mL; Vz (apparent volume of distribution during terminal phase) ([1]; human, in vivo, iv, 3 mg/kg): 0.120 L/kg; t1/2 (apparent elimination half-life) ([1]; human, in vivo, iv, 3 mg/kg): 191 h; tmax ([1]; human, in vivo, iv, 3 mg/kg): 2.00 h; AUC0-tz ([1]; human, in vivo, iv, 10 mg/kg): 22994 µg·h/mL; AUC0-tz normalized for dose (mg/kg) ([1]; human, in vivo, iv, 10 mg/kg): 2299 µg·h/mL; AUC0-∞ ([1]; human, in vivo, iv, 10 mg/kg): 23227 µg·h/mL; AUC0-∞ normalized for dose (mg/kg) ([1]; human, in vivo, iv, 10 mg/kg): 2323 µg·h/mL; CL (apparent total body clearance) ([1]; human, in vivo, iv, 10 mg/kg): 10.3 mL/day/kg; Cmax ([1]; human, in vivo, iv, 10 mg/kg): 219000 ng/mL; Vz (apparent volume of distribution during terminal phase) ([1]; human, in vivo, iv, 10 mg/kg): 0.0770 L/kg; t1/2 (apparent elimination half-life) ([1]; human, in vivo, iv, 10 mg/kg): 124 h; tmax ([1]; human, in vivo, iv, 10 mg/kg): 4.00 h; Detectability of kappamab in serum ([1]; in vivo): could be detected at all dose levels (up to Day 30); Start of the apparent terminal elimination phase ([1]; in vivo, iv): ~7 days; Time at which maximum serum concentrations were achieved ([1]; in vivo, iv): 2 to 4 h; Change in serum concentration (CXCL9): dose-related decreases; Serum λFLC concentration (serum λFLC): no apparent change

— patent publication US20220031840A1, “Method of Treatment” (HaemaLogix Pty Ltd, priority 2018, published 2022)
